According to the Human Domainome abundance scans (Beltran et al. 2025):

B1: Protein S100-G, residues 1 to 79; numbered along this chain, P02633 (parent)
chain: MSAKKSPEELKGIFEKYAAKEGDPNQLSKEELKLLLQTEFPSLLKGPSTLDELFEELDKNGDGEVSFEEFQVLVKKISQ

Variants of: B1
Test: abundance fitness (aPCA) (normalised: wild type 0, dead -1); higher = more abundant; growth selection in yeast, the domain comes from the species named
Conditions: Bos taurus

Abundance fitness: each site, then its substitutions
F40: Y -0.011, V -0.065, W 0.008, K -0.218, S -0.16, Q -0.178, P -0.889, N -0.084, M 0.047, I 0.019, L -0.037, T -0.106
E56: W -0.076, Q -0.053, M -0.045, P 0.094, Y -0.06, T 0.001, L -0.082, K -0.071, S 0.002, G -0.006, I -0.208, C 0.065, H -0.005, R -0.02, A -0.042
T49: C -0.12, I -0.021, M -0.081, A 0.007, W -0.076, G -0.043, Q 0.04, E -0.026, K -0.103, S 0.018, Y 0, N -0.109, R -0.057, F 0.032, D -0.08, H 0.047, P -0.051
D58: Q 0.068, V -0.058, I 0.027, N -0.053, A -0.107, K -0.008, G 0.007, P -0.078, E -0.109, W -0.027, M -0.026, F 0.054, L 0.054, R -0.072, Y -0.008, C -0.022, S 0.025, T 0.021, H -0.096
K59: I -0.105, A 0.055, E -0.005, F 0.098, L 0.052, G 0.093, C 0.021, D -0.022, H 0.013
L44: T 0.035, N 0.058, W 0.115, A 0.071, M -0.059, S -0.047, P 0.08, D 0.033, Y 0.033, H -0.035, G -0.047, E 0.058, R -0.024, I 0.033, V 0.02, F -0.006, C 0.002, Q -0.037
P47: C 0.04, K -0.09, T 0.085, L -0.027, G -0.023, S 0.073, W -0.01, F -0.015, D -0.02, Y 0.042, R -0.05, M -0.004, A 0.094, V 0.082, Q 0.051
D51: K -0.043, I -0.08, C 0.011, F -0.121, V -0.032, S -0.032, G -0.044, R -0.07, Q -0.091, E -0.07, W -0.142, M 0.005, P 0.032, A -0.032, L -0.072, Y -0.145, N 0.032
L53: W 0.013, N 0.109, Y -0.036, E 0.031, P 0.033, C -0.048, I 0.041, M 0.015, V 0.028, F 0.077, R -0.031, A 0.055, T 0.036, H 0.026, Q 0.028, G -0.065, K -0.033, D 0.053
F54: G -0.038, D 0.035, N 0.039, Y 0.064, P -0.073, R -0.093, M 0.007, I 0.051, C -0.004, L 0.04, K -0.048, H -0.054, S 0.023, V -0.015, E -0.033, T 0.03, W 0.04, Q 0.004, A -0.007
L43: E 0.105, C -0.018, S 0.023, Y 0.015, K -0.001, M 0.011, H -0.034, F -0.02
